Key:
[1] = target: T1, H1MI15-I53_dn5B trimer (A/Michigan/45/2015 HA 1-676 Y98F no lkr dn5B.SA.WELQ-H) (influenza A virus H1/A/Michigan/45/2015 …); experiment: in vitro nanoparticle assembly, SEC
[2] = target: T1, H1MI15-I53_dn5B trimer …; experiment: in vitro nanoparticle assembly, SEC and SDS-PAGE
[3] = target: T1, H1MI15-I53_dn5B trimer …; experiment: in vitro nanoparticle assembly; SEC, DLS, nsTEM
[4] = target: T1, H1MI15-I53_dn5B trimer …; experiment: in vitro nanoparticle assembly

B1: I53_dn5A_1C5kPEG pentamer (designed binder)
chain: MGKYDGSKLRIGILHARGNAEIILALVLGALKRLQEFGVKRENIIIETVPGSFELPYGSKLFVEKQKRLGKPLDAIIPIGVLIRGSTPHFDYIADSTTHQLMKLNFELGIPVIFGVITADTCEQAEARAGLIEGKMHNHGEDWGAAAVEMATKFNGGWELQLEGSHHHHHH
B1: binds [1].

B2: I53_dn5A_D120C pentamer coupled to 2 kDa PEG (designed binder)
chain: MGKYDGSKLRIGILHARGNAEIILALVLGALKRLQEFGVKRENIIIETVPGSFELPYGSKLFVEKQKRLGKPLDAIIPIGVLIRGSTPHFDYIADSTTHQLMKLNFELGIPVIFGVITADTCEQAEARAGLIEGKMHNHGEDWGAAAVEMATKFNGGWELQLEGSHHHHHH
B2: binds [2].

B3: I53_dn5A_D120C pentamer coupled to 1 kDa PEG (designed binder)
chain: MGKYDGSKLRIGILHARGNAEIILALVLGALKRLQEFGVKRENIIIETVPGSFELPYGSKLFVEKQKRLGKPLDAIIPIGVLIRGSTPHFDYIADSTTHQLMKLNFELGIPVIFGVITADTCEQAEARAGLIEGKMHNHGEDWGAAAVEMATKFNGGWELQLEGSHHHHHH
B3: binds [2].

B4: I53_dn5A_2C2kPEG pentamer (designed binder)
chain: MGKYDGSKLRIGILHARGNAEIILALVLGALKRLQEFGVKRENIIIETVPGSFELPYGSKLFVEKQKRLGKPLDAIIPIGVLIRGCTPHFDYIADSTTHQLMKLNFELGIPVIFGVITADTCEQAEARAGLIEGKMHNHGEDWGAAAVEMATKFNGGWELQLEGSHHHHHH
B4: binds [3].

B5: I53_dn5A_S84C_D120C pentamer coupled to 1 kDa PEG (designed binder)
chain: MGKYDGSKLRIGILHARGNAEIILALVLGALKRLQEFGVKRENIIIETVPGSFELPYGSKLFVEKQKRLGKPLDAIIPIGVLIRGCTPHFDYIADSTTHQLMKLNFELGIPVIFGVITADTCEQAEARAGLIEGKMHNHGEDWGAAAVEMATKFNGGWELQLEGSHHHHHH
B5: binds [3].

B6: I53_dn5Acp7 PAS pentamer (designed binder)
chain: MGSHHHHHHGSDEQAEERAGTKAGNHGEDWGAAAVEMATKFNGSGGSGKYDGSKLRIGILHARGNAEIILELVLGALKRLQEFGVKRENIIIETVPGSFELPYGSKLFVEKQKRLGKPLDAIIPIGVLIRGSTAHFDYIADSTTHQLMKLNFELGIPVIFGVLTTESGGSASPAAPAPASPAAPAPSAPAAASPAAPAPASPAAPAPSAPAAASPAAPAPASPAAPAPSAPAA
B6: binds [3].

B7: I53_dn5A_2gly pentamer (designed binder)
chain: KYDGSKLRIGILHARGNAEIILELVLGALKRLQEFGVKRENIIIETVPGSFELPYGSKLFVEKQKRLGKPLDAIIPIGVLIRGNDTHFDYIADSTTHQLMKLNFELGIPVIFGVLTTNSTEQAEERAGTKAGNHGEDWGAAAVEMATKFNLEEQKLISEEDLHHHHHH
B7: binds [4].
